The target in assay [1] is T1, human SIRPA_V1 protein (human, UniProt P78324 31-504).
T1 construct: Expressed on 293α cells from pcDNA3.2 V5-DEST or pFLAG V5-DEST (FLAG-tagged) vectors; also called human SIRPA Variant 1; hSIRPA V1
In words: cell-based ELISA on 293α cells expressing FLAG-tagged SIRPA_V1; Abs 490 normalized to FLAG tag [i]. The method, then: (§1) The 293a cells, described in Example 1)-6, were prepared at 5× 10⁵ cells/mL in a 10% FBS-containing DMEM medium. pFLAG V5-DEST-SIRPA_V1-V10, pFLAG V5-DEST-monkey SIRPA, pFLAG V5-DEST-mouse SIRPA, or pFLAG V5-DEST was introduced into the cells using Lipofectamine LTX (Invitrogen), and 100 μL each was aliquoted to a 96-well plate (Corning Incorporated) and cultured overnight in a 10% FBS-containing DMEM medium at 37° C. under a 5% CO₂ condition. The obtained introduced cells were used for cell-based ELISA in a state that they adhered. After the culture supernatant was removed, 50 μL per well of hD13_HIL3, hD13_HIL4h, hD13_H2L2, hD13_H2L3, or cD13 prepared in Examples 6 and 7 or a control antibody was added to each of various SIRPA genes-introduced cells at a final concentration of 0 to 10,000 ng/ml, and the mixture was allowed to stand at 4° C. for one hour. Thereafter, binding to human SIRPA was evaluated in the same manner as in Example 5-1.

The target of assay [2] is T2, human SIRPA_V3 (human, UniProt P78324 31-504).
T2 construct: FLAG-tagged (pFLAG V5-DEST), on 293α cells; also called human SIRPA Variant 3
In words: cell-based ELISA on 293α cells expressing FLAG-tagged SIRPA_V3; Abs 490 normalized to FLAG tag [iii]. The method, then:
as §1

Assay [3] concerns the target T3, mouse SIRPA_C57BL/6 (mouse (C57BL/6), UniProt P97797 32-513).
T3 construct: FLAG-tagged (pFLAG V5-DEST), on 293α cells
T3 sequence: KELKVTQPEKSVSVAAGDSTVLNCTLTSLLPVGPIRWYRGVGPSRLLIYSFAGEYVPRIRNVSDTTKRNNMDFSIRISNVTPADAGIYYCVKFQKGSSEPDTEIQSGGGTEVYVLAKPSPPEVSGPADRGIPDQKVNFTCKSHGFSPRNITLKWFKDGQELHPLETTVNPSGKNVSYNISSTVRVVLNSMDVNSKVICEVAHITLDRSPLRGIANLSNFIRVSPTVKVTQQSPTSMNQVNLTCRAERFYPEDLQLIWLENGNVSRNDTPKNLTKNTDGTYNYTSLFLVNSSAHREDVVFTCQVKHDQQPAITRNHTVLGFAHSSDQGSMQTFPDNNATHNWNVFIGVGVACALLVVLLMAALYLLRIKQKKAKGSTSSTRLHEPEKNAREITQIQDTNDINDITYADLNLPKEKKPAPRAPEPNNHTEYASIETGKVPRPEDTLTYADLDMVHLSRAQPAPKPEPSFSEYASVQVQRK
In words: cell-based ELISA on 293α cells expressing FLAG-tagged mouse SIRPA (C57BL/6); Abs 490 normalized to FLAG tag [i]. As for the experimental part: as §1

The target of assay [4] is T4, monkey SIRPA protein (cynomolgus monkey, UniProt P78324 31-504 (human entry)).
T4 construct: Expressed on 293α cells from pcDNA3.2 V5-DEST or pFLAG V5-DEST vectors; also called cynomolgus monkey SIRPA; cSIRPA
T4 chain: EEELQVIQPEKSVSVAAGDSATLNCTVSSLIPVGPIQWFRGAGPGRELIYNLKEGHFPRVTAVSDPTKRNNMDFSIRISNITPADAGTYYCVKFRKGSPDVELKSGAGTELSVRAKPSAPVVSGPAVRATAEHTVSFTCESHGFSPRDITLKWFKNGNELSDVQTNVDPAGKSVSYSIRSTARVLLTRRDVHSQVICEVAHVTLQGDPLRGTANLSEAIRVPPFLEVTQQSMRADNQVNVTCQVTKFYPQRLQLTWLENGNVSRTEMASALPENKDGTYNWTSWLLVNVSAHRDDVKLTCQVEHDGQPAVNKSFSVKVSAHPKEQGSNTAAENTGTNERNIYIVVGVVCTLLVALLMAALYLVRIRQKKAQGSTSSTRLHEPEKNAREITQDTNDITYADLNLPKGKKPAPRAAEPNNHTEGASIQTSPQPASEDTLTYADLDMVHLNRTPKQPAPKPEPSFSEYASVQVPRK
In words: blocking cell-based ELISA: peroxidase-labeled CD47-Fc (1 µg/mL) on 293α cells expressing monkey SIRPA; y axis = CD47-Fc signal relative to no antibody (100). As for the experimental part:
After the culture supernatant of human SIRPA or monkey SIRPA expression vector-introduced 293α cells prepared in Example 8)-1 was removed, 50 μL per well of hD13_HIL3, hD13_HIL4h, hD13_H2L2, or hD13_H2L3 diluted with 5% FBS-containing PBS to a final concentration of 0 to 10,000 ng/ml was added to each of pcDNA3.2 V5-DEST-SIRPA_V1, pcDNA3.2 V5-DEST-SIRPA_V2, pcDNA3.2 V5-DEST-monkey SIRPA, and pcDNA3.2 V5-DEST-introduced 293α cells, immediately followed by addition of peroxidase-labeled CD47-Fc prepared with 5% FBS-containing PBS at 1 μg/mL, and the mixture was allowed to stand at 4° C. for one hour. Thereafter, the SIRPA-CD47 binding inhibitory activity was evaluated in the same manner as in 1)-6-3.

T1 sequence (P78324 31-504 limits assumed): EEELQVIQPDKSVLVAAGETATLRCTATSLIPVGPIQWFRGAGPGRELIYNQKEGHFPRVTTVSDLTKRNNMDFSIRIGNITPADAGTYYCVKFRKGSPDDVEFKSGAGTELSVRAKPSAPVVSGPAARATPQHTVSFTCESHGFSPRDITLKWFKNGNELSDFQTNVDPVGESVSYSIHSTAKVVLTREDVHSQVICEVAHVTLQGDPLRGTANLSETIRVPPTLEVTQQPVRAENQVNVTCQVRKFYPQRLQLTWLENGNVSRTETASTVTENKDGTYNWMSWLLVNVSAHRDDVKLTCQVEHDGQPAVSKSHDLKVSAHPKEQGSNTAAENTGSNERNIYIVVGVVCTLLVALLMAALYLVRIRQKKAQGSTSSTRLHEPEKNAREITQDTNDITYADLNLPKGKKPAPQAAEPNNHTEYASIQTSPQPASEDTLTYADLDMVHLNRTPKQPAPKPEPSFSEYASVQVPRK
T2 sequence (P78324 other isoform, or with tags, fused parts or gaps limits assumed): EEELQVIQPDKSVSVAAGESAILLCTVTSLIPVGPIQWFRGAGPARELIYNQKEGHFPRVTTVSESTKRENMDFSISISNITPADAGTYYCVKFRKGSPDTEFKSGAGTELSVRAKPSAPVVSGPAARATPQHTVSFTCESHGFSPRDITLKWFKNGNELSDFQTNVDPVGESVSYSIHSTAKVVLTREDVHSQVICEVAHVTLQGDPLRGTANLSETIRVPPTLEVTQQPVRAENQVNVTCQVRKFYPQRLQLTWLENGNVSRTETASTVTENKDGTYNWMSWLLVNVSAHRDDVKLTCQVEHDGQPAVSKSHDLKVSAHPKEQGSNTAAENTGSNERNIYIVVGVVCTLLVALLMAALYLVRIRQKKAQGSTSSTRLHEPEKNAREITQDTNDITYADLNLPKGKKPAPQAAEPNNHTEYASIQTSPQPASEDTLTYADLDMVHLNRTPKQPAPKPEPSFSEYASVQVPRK

B1: humanized anti-SIRPA antibody hD13_H1L3 (antibody, human IgG4 S228P, kappa, F234A L235A, V domains shown)
VH: QVQLVESGGGVVQPGRSLRLSCAASGFTFSDYGMIWVRQAPGKGLEWVASISSSSSYIYYADSVKGRFTISRDNSKNRLYLQMNSLRAEDTAVYYCARRYYGFNYPFDYWGQGTMVTVSS
VL: DTQLTQSPSSLSASVGQRVTITCGASKSVRTYMHWYQQKPGKQPKLLIYSASNLEAGVPSRFSGSGSGTDFTLTISSLQPEDFATYYCQQSNEPPYTFGQGTKLEIKR
notes: hH1 heavy chain (IgG4proFALA) and hL3 kappa light chain; also called hD13_HIL3; HIL3 antibody
Regarding B1, the “EC50 (read off the curve)” value in assay [1] is roughly 0.04 µg/mL; in assay [2] it was roughly 0.03 µg/mL. Moreover, the binding result in assay [3] is recorded as “no binding (tested: 10000 ng/mL)”. Also, the “IC50 (read off the curve)” value in assay [4] is roughly 0.6 µg/mL.

B2: humanized anti-SIRPA antibody hD13_H2L3 (antibody, human IgG4 S228P, kappa, F234A L235A, V domains shown)
VH: EVQLVESGGGVVQPGRSLRLSCAASGFTFSDYGMIWVRQAPGKGLEWVASISSSSSYIYYADSVKGRFTISRDNSKNTLYLQMNSLRAEDTAVYYCARRYYGFNYPFDYWGQGTMVTVSS
VL: DTQLTQSPSSLSASVGQRVTITCGASKSVRTYMHWYQQKPGKQPKLLIYSASNLEAGVPSRFSGSGSGTDFTLTISSLQPEDFATYYCQQSNEPPYTFGQGTKLEIKR
notes: hH2 heavy chain (IgG4proFALA) and hL3 kappa light chain; also called H2L3 antibody
B2: the “EC50 (read off the curve)” value in assay [1] was roughly 0.05 µg/mL; in assay [2], roughly 0.04 µg/mL. The binding result in assay [3] is “no binding (tested: 10000 ng/mL)”. Besides, the “IC50 (read off the curve)” value in assay [4] is roughly 0.8 µg/mL.

B3: humanized anti-SIRPA antibody hD13_H1L4 (antibody, human IgG4 S228P, kappa, F234A L235A, V domains shown)
VH: QVQLVESGGGVVQPGRSLRLSCAASGFTFSDYGMIWVRQAPGKGLEWVASISSSSSYIYYADSVKGRFTISRDNSKNRLYLQMNSLRAEDTAVYYCARRYYGFNYPFDYWGQGTMVTVSS
VL: DTVLTQSPDSLAVSLGQRATINCGASKSVRTYMHWYQQKPGQQPKLLIYSASNLEAGVPSRFSGSGSGTDFTLTISSLQAEDVAVYYCQQSNEPPYTFGQGTKVEIKR
notes: hH1 heavy chain (IgG4proFALA) and hL4 kappa light chain; also called hD13_HIL4; hD13_HIL4h
Consider B3, for which the “EC50 (read off the curve)” value in assay [1] was roughly 0.04 µg/mL; in assay [2], roughly 0.03 µg/mL. The binding result in assay [3] is recorded as “no binding (tested: 10000 ng/mL)”. In assay [4], the “IC50 (read off the curve)” value was roughly 1 µg/mL.

B4: humanized anti-SIRPA antibody hD13_H2L2 (antibody, human IgG4 S228P, kappa, F234A L235A, V domains shown)
VH: EVQLVESGGGVVQPGRSLRLSCAASGFTFSDYGMIWVRQAPGKGLEWVASISSSSSYIYYADSVKGRFTISRDNSKNTLYLQMNSLRAEDTAVYYCARRYYGFNYPFDYWGQGTMVTVSS
VL: AIQLTQSPSSLSASVGQRVTITCGASKSVRTYMHWYQQKPGKAPKLLIYSASNLEAGVPSRFSGSGSGTDFTLTISSLQPEDFATYYCQQSNEPPYTFGQGTKLEIKR
notes: hH2 heavy chain (IgG4proFALA) and hL2 kappa light chain; also called H2L2 antibody
For the molecule B4, the “EC50 (read off the curve)” value in assay [1] and in assay [2] was roughly 0.04 µg/mL throughout. Besides, the binding result in assay [3] is “no binding (tested: 10000 ng/mL)”. Besides, the “IC50 (read off the curve)” value in assay [4] was roughly 0.9 µg/mL.

B5: human chimeric anti-SIRPA antibody cD13 (antibody, human IgG4 S228P, kappa, F234A L235A, V domains shown)
VH: EVQLVESGGGLVQPGRSLKLSCLASGFTFSDYGMIWVRQAPGKGLEWVASISSSSSYIYYADTVKGRFTISRENAKNTLFLHMTSLRSEDTALYYCARRYYGFNYPFDYWGQGVMVTVSS
VL: DTVLTQSPALAVSLGQRVTISCGASKSVRTYMHWYQQKSGQQPKLLIYSASNLEAGVPSRFSGSGSGTDFTLTIDPVEADDIANYYCQQSNEPPYTFGAGTKLELKR
notes: Human IgG4proFALA heavy chain, human kappa light chain; also called cD13 (IgG4pf); human chimeric antibody D13
Take B5: the “EC50 (read off the curve)” value is roughly 0.05 µg/mL in assay [1] and roughly 0.04 µg/mL in assay [2]. For the same molecule, in assay [3], the binding result is “no binding (tested: 10000 ng/mL)”. The “IC50 (read off the curve)” value in assay [4] was roughly 0.9 µg/mL.

Source of the values: patent US20260098102A1 (NATIONAL UNIVERSITY CORPORATION KOBE UNIVERSITY, published 2026).
